# Source: patent publication US11230581B2, “Peptides and combination of peptides for use in immunotherapy against ovarian cancer and other cancers” (Immatics Biotechnologies GmbH, priority 2015, dated 2022)
# Biological target: HLA-A*02:01 (Homo sapiens, UniProt P04439, D140Y/D185E/D98H/E176V/E277Q/G131W/G231S/I119V/I121R/I166T/I218V/L300P/L318F/N151K/N90K/P208A/P217A/Q86G/Q94H/R138H/R169H/T345S)
# Assay: MHC binding assay (UV-ligand exchange, β2m ELISA, peptide exchange yield)
# Settings: binding of HLA-class I restricted peptides to HLA-A*02:01, UV-ligand exchange
# Outline: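 Peptide-MHC complexes formed by UV-ligand exchange, cleaving a UV-sensitive placeholder peptide in favour of the test peptide. Exchange yield measured by ELISA: monomers diluted 100-fold onto streptavidin-coated plates, 1 h 37 °C, detected with 2 ug/ml HRP anti-β2m and TMB, absorbance at 450 nm.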
row,Substance,"Peptide exchange (MHC class I binding score, peptide exchange yield)"
1,192 (KMLDGASFTL; listed as Homo sapiens) [compound 192],“+++” (≥50 = +++)
2,193 (QLLDADGFLNV; listed as Homo sapiens) [compound 193],“+++” (≥50 = +++)
3,194 (ALPLFVITV; listed as Homo sapiens) [compound 194],“+++” (≥50 = +++)
4,195 (GLFADLLPRL; listed as Homo sapiens) [compound 195],“+++” (≥50 = +++)
5,196 (YLYSVEIKL; listed as Homo sapiens) [compound 196],“++++” (≥75% = ++++)
6,197 (ALGPEGGRV; listed as Homo sapiens) [compound 197],“++” (≥20% = ++)
7,198 (KTINKVPTV; listed as Homo sapiens) [compound 198],“+++” (≥50 = +++)
8,199 (ALQDVPLSSV; listed as Homo sapiens) [compound 199],“+++” (≥50 = +++)
9,200 (LLFGSVQEV; listed as Homo sapiens) [compound 200],“+++” (≥50 = +++)
10,201 (RLVDYLEGI; listed as Homo sapiens) [compound 201],“+++” (≥50 = +++)
11,202 (ALLDQQGSRWTL; listed as Homo sapiens) [compound 202],“+++” (≥50 = +++)
12,204 (KIAENVEEV; listed as Homo sapiens) [compound 204],“++” (≥20% = ++)
13,205 (SLYPGTETMGL; listed as Homo sapiens) [compound 205],“+++” (≥50 = +++)
14,206 (VLQEGKLQKLAQL; listed as Homo sapiens) [compound 206],“+++” (≥50 = +++)
15,207 (GLTSTNAEV; listed as Homo sapiens) [compound 207],“++” (≥20% = ++)
16,208 (KISPVTFSV; listed as Homo sapiens) [compound 208],“+++” (≥50 = +++)
17,209 (KLIESKHEV; listed as Homo sapiens) [compound 209],“++” (≥20% = ++)
18,210 (LLLNAVLTV; listed as Homo sapiens) [compound 210],“++” (≥20% = ++)
19,211 (LLWPGAALL; listed as Homo sapiens) [compound 211],“++” (≥20% = ++)
20,212 (ALWDQDNLSV; listed as Homo sapiens) [compound 212],“++” (≥20% = ++)
21,214 (FLLDLDPLLL; listed as Homo sapiens) [compound 214],“+++” (≥50 = +++)
22,215 (QLINHLHAV; listed as Homo sapiens) [compound 215],“+++” (≥50 = +++)
23,216 (NLWEDPYYL; listed as Homo sapiens) [compound 216],“+++” (≥50 = +++)

row,Substance,"Peptide exchange (MHC class I binding score, peptide exchange yield)"
1,217 (ALIHPVSTV; listed as Homo sapiens) [compound 217],“++” (≥20% = ++)
2,218 (SALEELVNV; listed as Homo sapiens) [compound 218],“++” (≥20% = ++)
3,219 (KLSDIGITV; listed as Homo sapiens) [compound 219],“+++” (≥50 = +++)
4,220 (LLQKFVPEI; listed as Homo sapiens) [compound 220],“++” (≥20% = ++)
5,221 (ALYEEGLLL; listed as Homo sapiens) [compound 221],“++” (≥20% = ++)
6,222 (NLIENVQRL; listed as Homo sapiens) [compound 222],“++” (≥20% = ++)
7,223 (ALLENIALYL; listed as Homo sapiens) [compound 223],“+++” (≥50 = +++)
8,224 (TLIDAQWVL; listed as Homo sapiens) [compound 224],“+++” (≥50 = +++)
9,225 (SLLKVLPAL; listed as Homo sapiens) [compound 225],“+++” (≥50 = +++)
10,226 (MLYVVPIYL; listed as Homo sapiens) [compound 226],“++” (≥20% = ++)
11,227 (ALMNTLLYL; listed as Homo sapiens) [compound 227],“++” (≥20% = ++)
12,228 (AMQEYIAVV; listed as Homo sapiens) [compound 228],“++” (≥20% = ++)
13,229 (RLPGPLGTV; listed as Homo sapiens) [compound 229],“++” (≥20% = ++)
14,230 (ILVDWLVEV; listed as Homo sapiens) [compound 230],“+” (≥10% = +)
15,231 (FLSPQQPPLLL; listed as Homo sapiens) [compound 231],“++” (≥20% = ++)
16,232 (ALLEAQDVELYL; listed as Homo sapiens) [compound 232],“++” (≥20% = ++)
17,233 (VLSETLYEL; listed as Homo sapiens) [compound 233],“++” (≥20% = ++)
18,234 (ALMEDTGRQML; listed as Homo sapiens) [compound 234],“++” (≥20% = ++)
19,235 (YLNDLHEVLL; listed as Homo sapiens) [compound 235],“++++” (≥75% = ++++)
20,236 (GLLEAKVSL; listed as Homo sapiens) [compound 236],“+++” (≥50 = +++)
21,237 (ALLEASGTLLL; listed as Homo sapiens) [compound 237],“++++” (≥75% = ++++)
22,238 (YLISFQTHI; listed as Homo sapiens) [compound 238],“+++” (≥50 = +++)
23,239 (AAFAGKLLSV; listed as Homo sapiens) [compound 239],“+++” (≥50 = +++)

row,Substance,"Peptide exchange (MHC class I binding score, peptide exchange yield)"
1,240 (ILLEQAFYL; listed as Homo sapiens) [compound 240],“+++” (≥50 = +++)
2,241 (SLVEVNPAYSV; listed as Homo sapiens) [compound 241],“+++” (≥50 = +++)
3,242 (AIAYILQGV; listed as Homo sapiens) [compound 242],“++” (≥20% = ++)
4,243 (LLLNELPSV; listed as Homo sapiens) [compound 243],“+++” (≥50 = +++)
5,244 (SLFGGTEITI; listed as Homo sapiens) [compound 244],“+++” (≥50 = +++)
6,245 (SMIDDLLGV; listed as Homo sapiens) [compound 245],“+++” (≥50 = +++)
7,246 (LLWEVVSQL; listed as Homo sapiens) [compound 246],“+++” (≥50 = +++)
8,247 (VLLPNDLLEKV; listed as Homo sapiens) [compound 247],“+++” (≥50 = +++)
9,248 (FLFPNQYVDV; listed as Homo sapiens) [compound 248],“+++” (≥50 = +++)
10,249 (LLDGFLVNV; listed as Homo sapiens) [compound 249],“+++” (≥50 = +++)
11,250 (ALSEEGLLVYL; listed as Homo sapiens) [compound 250],“+++” (≥50 = +++)
12,251 (ALYTGFSILV; listed as Homo sapiens) [compound 251],“++” (≥20% = ++)
13,252 (LLIGTDVSL; listed as Homo sapiens) [compound 252],“+++” (≥50 = +++)
14,253 (GLDAATATV; listed as Homo sapiens) [compound 253],“++” (≥20% = ++)
15,254 (TLLAFIMEL; listed as Homo sapiens) [compound 254],“+++” (≥50 = +++)
16,255 (VLASYNLTV; listed as Homo sapiens) [compound 255],“+++” (≥50 = +++)
17,256 (FLPPEHTIVYI; listed as Homo sapiens) [compound 256],“+++” (≥50 = +++)
18,257 (SIFSAFLSV; listed as Homo sapiens) [compound 257],“+++” (≥50 = +++)
19,258 (ELAERVPAI; listed as Homo sapiens) [compound 258],“++” (≥20% = ++)
20,261 (YVLEFLEEI; listed as Homo sapiens) [compound 261],“++” (≥20% = ++)
21,262 (LLWGDLIWL; listed as Homo sapiens) [compound 262],“+++” (≥50 = +++)
